Data set [1] concerns the target FITC-labeled BiP-NBD (D27C variant) (UniProt P20029). As to the kind of experiment: fluorescence polarisation.
The target of data set [2] is BiP double-mutant G518C and Y636C labelled with AlexaFluor 555 and AlexaFluor 647 (UniProt P20029). Briefly: other fluorescence titration.
The data set “cross-linking” deals with the molecule itself. Briefly: cross-linking.

For the molecule “M86C cross-linked Grp94 (from UniProt P08113 72-765) (natural protein)”, the fold affinity enhancement versus wild-type Grp94 in data set [1] turned out to be 50 fold.
Consider “Mouse E-peptide containing an N-terminal six-histidine tag and S95C mutation (domain or fragment)”, for which, in data set [2], the Kd is 130 nM.
Take “Wild-type mouse Grp94 (72 to 765) (from UniProt P08113 72-765) (natural protein)”: the Kd in data set [1] worked out at 950 nM.

B1: Grp94 M86C (natural protein, mouse, UniProt P08113 72-765, looked up)
chain: KSEKFAFQAEVNRMCKLIINSLYKNKEIFLRELISNASDALDKIRLISLTDENALAGNEELTVKIKCDKEKNLLHVTDTGVGMTREELVKNLGTIAKSGTSEFLNKMTEAQEDGQSTSELIGQFGVGFYSAFLVADKVIVTSKHNNDTQHIWESDSNEFSVIADPRGNTLGRGTTITLVLKEEASDYLELDTIKNLVRKYSQFINFPIYVWSSKTETVEEPLEEDEAAKEEKEESDDEAAVEEEEEEKKPKTKKVEKTVWDWELMNDIKPIWQRPSKEVEEDEYKAFYKSFSKESDDPMAYIHFTAEGEVTFKSILFVPTSAPRGLFDEYGSKKSDYIKLYVRRVFITDDFHDMMPKYLNFVKGVVDSDDLPLNVSRETLQQHKLLKVIRKKLVRKTLDMIKKIADEKYNDTFWKEFGTNIKLGVIEDHSNRTRLAKLLRFQSSHHSTDITSLDQYVERMKEKQDKIYFMAGSSRKEAESSPFVERLLKKGYEVIYLTEPVDEYCIQALPEFDGKRFQNVAKEGVKFDESEKTKESREATEKEFEPLLNWMKDKALKDKIEKAVVSQRLTESPCALVASQYGWSGNMERIMKAQAYQTGKDISTNYYASQKKTFEINPRHPLIRDMLRRIKEDEDDKTVMDLAVVLFETATLRSGYLLPDTKAYGDRIERMLRLSLNIDPEAQVEEEPEEEPED
For B1, in “cross-linking”, the binding result is reported as “binds”.

What is called Kd is the constant that tells how readily two partners part at equilibrium.

Values taken from article PMC8812556 (Proceedings of the National Academy of Sciences of the …, 2022).
